The values that follow come from PMC4817942.

In assay [1] the target is human HER2 ECD-Fc recombinant (human) (UniProt P04626). As to the kind of experiment: SPR; BIAcore 3000; human HER2 ECD-Fc amine-coupled on a CM5 chip to 200 RU; analyte FS102 (50 µg/ml) at 20 µl/minute; HBS-P buffer; apparent KD.
Assay [2] concerns the target HER2 on the cell surface (human (endogenous in SK-BR-3, HCC1954 and BT474)) (UniProt P04626). Description: flow cytometry on cells; cells with 0.1-2,000 nmol/l Fcab for 1 hour at 4 °C in DPBS with 2% FBS; detected by anti-human IgG-phycoerythrin.
The target in assay [3] is neonatal Fc receptor (FcRn) (UniProt P55899). As to the kind of experiment: SPR; Biacore analysis; FcRn data collected at pH6; who was immobilised not told.
Assay [4] has as its target HER2 on the cell surface (human (endogenous in SK-BR-3, HCC1954 and BT474)) (UniProt P04626).
For assay [5], the target named is FcγRI (CD64) (UniProt P12314). As to the kind of experiment: SPR; Biacore analysis; who was immobilised, buffer and temperature not given for this experiment.
The target in assay [6] is FcγRIII (CD16A) (UniProt P08637). The description is as above.
The target in assay [7] is FcγRIIB (CD32B) (UniProt P31994). Described as above.
The target in assay [8] is FcγRIIA (CD32A) (UniProt P12318). Described as above.
Chain of FcγRIIA (CD32A) (P12318 34-317): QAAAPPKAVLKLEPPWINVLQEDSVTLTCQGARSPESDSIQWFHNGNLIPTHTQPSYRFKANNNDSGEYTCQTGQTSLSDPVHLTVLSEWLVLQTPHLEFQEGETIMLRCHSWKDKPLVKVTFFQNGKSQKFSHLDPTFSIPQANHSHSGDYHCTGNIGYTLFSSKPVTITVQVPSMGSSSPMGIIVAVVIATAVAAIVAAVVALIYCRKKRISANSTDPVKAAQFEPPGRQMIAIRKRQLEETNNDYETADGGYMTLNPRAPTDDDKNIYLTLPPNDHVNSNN

Chain of FcγRIIB (CD32B) (P31994 43-310): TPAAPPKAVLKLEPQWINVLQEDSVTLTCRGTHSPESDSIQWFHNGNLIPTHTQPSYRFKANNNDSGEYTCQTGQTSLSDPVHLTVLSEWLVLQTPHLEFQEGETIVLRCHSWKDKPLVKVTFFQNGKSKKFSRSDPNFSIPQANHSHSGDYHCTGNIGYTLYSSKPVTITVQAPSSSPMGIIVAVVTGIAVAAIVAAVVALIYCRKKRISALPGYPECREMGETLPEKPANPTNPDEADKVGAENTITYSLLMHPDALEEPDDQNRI
Chain of FcγRIII (CD16A) (P08637 17-254): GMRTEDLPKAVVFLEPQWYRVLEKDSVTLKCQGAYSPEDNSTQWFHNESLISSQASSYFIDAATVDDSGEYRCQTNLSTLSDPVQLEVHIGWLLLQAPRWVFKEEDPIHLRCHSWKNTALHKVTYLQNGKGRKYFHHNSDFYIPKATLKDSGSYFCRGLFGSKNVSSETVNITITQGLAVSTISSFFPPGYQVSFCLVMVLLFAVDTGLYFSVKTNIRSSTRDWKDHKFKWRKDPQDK
Chain of FcγRI (CD64) (P12314 16-374): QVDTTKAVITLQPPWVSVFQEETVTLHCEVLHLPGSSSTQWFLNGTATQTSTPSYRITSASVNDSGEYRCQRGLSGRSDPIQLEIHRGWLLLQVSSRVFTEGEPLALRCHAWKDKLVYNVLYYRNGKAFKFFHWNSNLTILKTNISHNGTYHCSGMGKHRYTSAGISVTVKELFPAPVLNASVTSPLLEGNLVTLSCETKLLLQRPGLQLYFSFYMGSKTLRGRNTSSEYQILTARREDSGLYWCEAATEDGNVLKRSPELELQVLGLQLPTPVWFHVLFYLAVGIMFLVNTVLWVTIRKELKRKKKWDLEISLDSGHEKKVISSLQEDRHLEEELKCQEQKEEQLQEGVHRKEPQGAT
Chain of neonatal Fc receptor (FcRn) (P55899 whole entry, looked up, tested part not stated): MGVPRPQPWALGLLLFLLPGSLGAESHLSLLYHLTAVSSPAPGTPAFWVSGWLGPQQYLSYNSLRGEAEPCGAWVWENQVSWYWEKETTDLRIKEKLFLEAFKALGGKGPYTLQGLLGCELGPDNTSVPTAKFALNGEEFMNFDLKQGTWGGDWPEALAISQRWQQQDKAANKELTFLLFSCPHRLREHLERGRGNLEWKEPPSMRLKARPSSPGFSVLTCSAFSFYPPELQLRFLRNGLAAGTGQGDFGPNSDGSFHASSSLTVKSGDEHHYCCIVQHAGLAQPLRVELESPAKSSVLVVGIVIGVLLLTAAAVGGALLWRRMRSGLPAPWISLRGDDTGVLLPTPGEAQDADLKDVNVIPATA

FS102 (designed binder): the Kd is 0.8 nM in assay [1]; 45 nM in assay [3]; 19 nM in assay [5]; 560 nM in assay [6]; 6400 nM in assay [7]; 472 nM in assay [8]. Also, the EC50 in assay [2] was 3.3 nM. This substance showed a reduction of HCC1954 cell number after 5 days of incubation (proliferation assay) in assay [4] of 47%. This substance displayed a reduction of SK-BR-3 cell number after 5 days of incubation (proliferation assay) in assay [4] of 39%.

Take IgG1 (antibody): the Kd in assay [3] is 20 to 60 nM; in assay [5], 15 nM; in assay [6], 660 nM; in assay [7] it was 5000 nM; in assay [8] it was 250 nM.

In assay [5], Trastuzumab (antibody) had a Kd of 40 nM.

As for “WT Fcab (unmodified constant region of human IgG1) (domain or fragment)”, the Kd in assay [5] was 27 nM; in assay [6], 500 nM; in assay [7], 6200 nM; in assay [8] it was 1000 nM.
